This assay deals with CXCR4 receptor (human (endogenous in MDA-MB-231)) (UniProt P61073).
Chain of UniProt P61073 (P61073 whole entry): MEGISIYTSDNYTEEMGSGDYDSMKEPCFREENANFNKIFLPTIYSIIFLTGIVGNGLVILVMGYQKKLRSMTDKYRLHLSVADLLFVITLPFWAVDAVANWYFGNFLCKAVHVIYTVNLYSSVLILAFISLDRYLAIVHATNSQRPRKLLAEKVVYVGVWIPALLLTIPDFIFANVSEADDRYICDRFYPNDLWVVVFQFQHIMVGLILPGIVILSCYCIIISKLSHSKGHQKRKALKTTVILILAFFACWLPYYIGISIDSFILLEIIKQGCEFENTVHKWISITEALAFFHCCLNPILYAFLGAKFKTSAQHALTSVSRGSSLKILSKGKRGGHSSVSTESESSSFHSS

“OHD_(4–12) (Obligate HeteroDimer CXCL4–CXCL12) (from UniProt P48061-2 22-89) (complex)” displayed a cytoplasmic Ca2+ release in MDA-MB-231 cells (Fura-2), dose response to OHD (4–12), EC50 of 1.3 nM.

Source of the values: article PMC9561612.
